Laboratory results as given in article PMC9891502.

Each substance was assayed against CMV gB ectodomain protein (assay: ELISA). Conditions: parent: 171.7.

Compared with “TRL345 unmutated common ancestor (UCA) mAb H:Y52aN; L:S30G; L:N53D”, “TRL345 unmutated common ancestor (UCA) mAb L:S30G” is 1.6-fold higher in EC50: 0.0077 µg/mL for the first, 0.0127 µg/mL for the second.

Compared with “TRL345 unmutated common ancestor (UCA) mAb L:N53D”, “TRL345 unmutated common ancestor (UCA) mAb H:Y52aN; L:N53D” is 2.1-fold lower in EC50: 0.0197 µg/mL for the first, 0.0094 µg/mL for the second.

For “TRL345 unmutated common ancestor (UCA) mAb H:Y52aN”, the EC50 was 0.0851 µg/mL.

These substances were tested against full-length gB (Towne strain) expressed on HEK293T cells (UniProt P13201) (assay: flow cytometry on cells). Conditions: three-point, 10-fold mAb serial dilution starting at 0.1 μg/mL; parent: 94.

First: TRL345 unmutated common ancestor (UCA) mAb H:A33N; H:Y52aN; L:N53D
Second: TRL345 unmutated common ancestor (UCA) mAb H:A33N; L:N53D
The other: AUC of the first is lower: 143 AUC for the first, 180 AUC for the second.

Going from “TRL345 unmutated common ancestor (UCA) mAb H:A33N; H:Y52aN” to “TRL345 unmutated common ancestor (UCA) mAb H:A33N; H:Y52aN; L:S30G”, the other: AUC rises from 140 AUC to 144 AUC.

Compared with “TRL345 unmutated common ancestor (UCA) mAb L:N53D”, “TRL345 unmutated common ancestor (UCA) mAb H:Y52aN; L:N53D” is higher in other: AUC: 90 AUC for the first, 109 AUC for the second.

First: TRL345 unmutated common ancestor (UCA) mAb H:A33N; L:S30G
Second: TRL345 unmutated common ancestor (UCA) mAb H:Y52aN; L:S30G
The other: AUC of the first is higher: 207 AUC for the first, 124 AUC for the second.

First: TRL345 unmutated common ancestor (UCA) mAb H:A33N; L:S30G; L:N53D
Second: TRL345 unmutated common ancestor (UCA) mAb L:S30G; L:N53D
The other: AUC of the first is higher: 138 AUC for the first, 107 AUC for the second.
